From patent US20230250154A1 (CYTONICS, published 2023)

T1: ADAMTS5 (human, UniProt Q9UNA0 262-622, limits assumed)
T1 sequence (looked up): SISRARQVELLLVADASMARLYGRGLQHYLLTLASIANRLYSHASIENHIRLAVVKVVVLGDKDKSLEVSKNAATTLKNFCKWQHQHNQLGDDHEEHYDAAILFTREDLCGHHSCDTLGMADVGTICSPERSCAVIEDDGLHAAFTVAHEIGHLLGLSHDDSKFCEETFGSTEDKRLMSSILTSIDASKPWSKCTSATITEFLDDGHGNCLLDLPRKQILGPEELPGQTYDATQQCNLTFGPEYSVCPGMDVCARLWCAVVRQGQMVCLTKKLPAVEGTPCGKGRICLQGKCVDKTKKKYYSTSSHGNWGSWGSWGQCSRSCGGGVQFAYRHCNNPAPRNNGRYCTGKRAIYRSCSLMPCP

T2: ADAMTS4 (human, UniProt O75173 213-685, limits assumed)
T2 sequence (looked up): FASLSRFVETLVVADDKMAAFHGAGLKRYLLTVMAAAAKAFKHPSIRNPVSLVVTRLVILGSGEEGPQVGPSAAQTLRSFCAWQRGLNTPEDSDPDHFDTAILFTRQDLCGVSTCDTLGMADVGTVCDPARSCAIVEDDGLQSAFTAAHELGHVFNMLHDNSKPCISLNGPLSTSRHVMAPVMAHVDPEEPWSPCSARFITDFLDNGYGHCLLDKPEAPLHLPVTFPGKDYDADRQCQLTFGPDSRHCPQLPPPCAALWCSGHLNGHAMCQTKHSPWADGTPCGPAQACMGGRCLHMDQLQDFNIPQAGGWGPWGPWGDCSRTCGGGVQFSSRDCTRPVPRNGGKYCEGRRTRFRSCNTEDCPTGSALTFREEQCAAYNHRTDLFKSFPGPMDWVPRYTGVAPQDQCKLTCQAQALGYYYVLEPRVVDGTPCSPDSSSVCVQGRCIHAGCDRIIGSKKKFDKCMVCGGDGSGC

B1: Variant A2M, bait region SEQ ID NO 85 (other)
chain: SVSGKPQYMVLVPSLLHTETTEKGCVLLSYLNETVTVSASLESVRGNRSLFTDLEAENDVLHCVAFAVPKSSSNEEVMFLTVQVKGPTQEFKKRTTVMVKNEDSLVFVQTDKSIYKPGQTVKFRVVSMDENFHPLNELIPLVYIQDPKGNRIAQWQSFQLEGGLKQFSFPLSSEPFQGSYKVVVQKKSGGRTEHPFTVEEFVLPKFEVQVTVPKIITILEEEMNVSVCGLYTYGKPVPGHVTVSICRKYSDASDCHGEDSQAFCEKFSGQLNSHGCFYQQVKTKVFQLKRKEYEMKLHTEAQIQEEGTVVELTGRQSSEITRTITKLSFVKVDSHFRQGIPFFGQVRLVDGKGVPIPNKVIFIRGNEANYYSNATTDEHGLVQFSINTTNVMGTSLTVRVNYKDRSPCYGYQWVSEEHEEAHHTAYLVFSPSKSFVHLEPMSHELPCGHTQTVQAHYILNGGTLLGLKKLSFYYLIMAKGGIVRTGTHGLLVKQEDMKGHFSISIPVKSDIAPVARLLIYAVLPTGDVIGDSAKYDVENCLANKVDLSFSPSQSLPASHAHLRVTAAPQSVCALRAVDQSVLLMKPDAELSASSVYNLLPEKDLTGFPGPLNDQDDEDCINRHNVYINGITYTPVSSTNEKDMYSFLEDMGLKAFTNSKIRKPKMCPQLEQYEMHGPEGLRVGIPENFFGVSELEGRGSKEEEGLGSKLRKYFPETWIWDLVVVNSAGVAEVGVTVPDTITEWKAGAFCLSEDAGLGISSTASLRAFQPFFVELTMPYSVIRGEAFTLKATVLNYLPKCIRVSVQLEASPAFLAVPVEKEQAPHCICANGRQTVSWAVTPKSLGNVNFTVSAEALESQELCGTEVPSVPEHGRKDTVIKPLLVEPEGLEKETTFNSLLCPSGGEVSEELSLKLPPNVVEESARASVSVLGDILGSAMQNTQNLLQMPYGCGEQNMVLFAPNIYVLDYLNETQQLTPEIKSKAIGYLNTGYQRQLNYKHYDGSYSTFGERYGRNQGNTWLTAFVLKTFAQARAYIFIDEAHITQALIWLSQRQKDNGCFRSSGSLLNNAIKGGVEDEVTLSAYITIALLEIPLTVTHPVVRNALFCLESAWKTAQEGDHGSHVYTKALLAYAFALAGNQDKRKEVLKSLNEEAVKKDNSVHWERPQKPKAPVGHFYEPQAPSAEVEMTSYVLLAYLTAQPAPTSEDLTSATNIVKWITKQQNAQGGFSSTQDTVVALHALSKYGAATFTRTGKAAQVTIQSSGTFSSKFQVDNNNRLLLQQVSLPELPGEYSMKVTGEGCVYLQTSLKYNILPEKEEFPFALGVQTLPQTCDEPKAHTSFQISLSVSYTGSRSASNMAIVDVKMVSGFIPLKPTVKMLERSNHVSRTEVSSNHVLIYLDKVSNQTLSLFFTVLQDVPVRDLKPAIVKVYDYYETDEFAIAEYNAPCSKDLGNADYKDDDDKGASHHHHHH
B2: Variant A2M, bait region SEQ ID NO 86 (other)
chain: SVSGKPQYMVLVPSLLHTETTEKGCVLLSYLNETVTVSASLESVRGNRSLFTDLEAENDVLHCVAFAVPKSSSNEEVMFLTVQVKGPTQEFKKRTTVMVKNEDSLVFVQTDKSIYKPGQTVKFRVVSMDENFHPLNELIPLVYIQDPKGNRIAQWQSFQLEGGLKQFSFPLSSEPFQGSYKVVVQKKSGGRTEHPFTVEEFVLPKFEVQVTVPKIITILEEEMNVSVCGLYTYGKPVPGHVTVSICRKYSDASDCHGEDSQAFCEKFSGQLNSHGCFYQQVKTKVFQLKRKEYEMKLHTEAQIQEEGTVVELTGRQSSEITRTITKLSFVKVDSHFRQGIPFFGQVRLVDGKGVPIPNKVIFIRGNEANYYSNATTDEHGLVQFSINTTNVMGTSLTVRVNYKDRSPCYGYQWVSEEHEEAHHTAYLVFSPSKSFVHLEPMSHELPCGHTQTVQAHYILNGGTLLGLKKLSFYYLIMAKGGIVRTGTHGLLVKQEDMKGHFSISIPVKSDIAPVARLLIYAVLPTGDVIGDSAKYDVENCLANKVDLSFSPSQSLPASHAHLRVTAAPQSVCALRAVDQSVLLMKPDAELSASSVYNLLPEKDLTGFPGPLNDQDDEDCINRHNVYINGITYTPVSSTNEKDMYSFLEDMGLKAFTNSKIRKPKMCPQLEQYEMHGPEGLRVGSELEGRGSKEEEGLGSIPENFFGVKLRKYFPETWIWDLVVVNSAGVAEVGVTVPDTITEWKAGAFCLSEDAGLGISSTASLRAFQPFFVELTMPYSVIRGEAFTLKATVLNYLPKCIRVSVQLEASPAFLAVPVEKEQAPHCICANGRQTVSWAVTPKSLGNVNFTVSAEALESQELCGTEVPSVPEHGRKDTVIKPLLVEPEGLEKETTFNSLLCPSGGEVSEELSLKLPPNVVEESARASVSVLGDILGSAMQNTQNLLQMPYGCGEQNMVLFAPNIYVLDYLNETQQLTPEIKSKAIGYLNTGYQRQLNYKHYDGSYSTFGERYGRNQGNTWLTAFVLKTFAQARAYIFIDEAHITQALIWLSQRQKDNGCFRSSGSLLNNAIKGGVEDEVTLSAYITIALLEIPLTVTHPVVRNALFCLESAWKTAQEGDHGSHVYTKALLAYAFALAGNQDKRKEVLKSLNEEAVKKDNSVHWERPQKPKAPVGHFYEPQAPSAEVEMTSYVLLAYLTAQPAPTSEDLTSATNIVKWITKQQNAQGGFSSTQDTVVALHALSKYGAATFTRTGKAAQVTIQSSGTFSSKFQVDNNNRLLLQQVSLPELPGEYSMKVTGEGCVYLQTSLKYNILPEKEEFPFALGVQTLPQTCDEPKAHTSFQISLSVSYTGSRSASNMAIVDVKMVSGFIPLKPTVKMLERSNHVSRTEVSSNHVLIYLDKVSNQTLSLFFTVLQDVPVRDLKPAIVKVYDYYETDEFAIAEYNAPCSKDLGNADYKDDDDKGASHHHHHH
B3: Variant A2M, bait region SEQ ID NO 88 (other)
chain: SVSGKPQYMVLVPSLLHTETTEKGCVLLSYLNETVTVSASLESVRGNRSLFTDLEAENDVLHCVAFAVPKSSSNEEVMFLTVQVKGPTQEFKKRTTVMVKNEDSLVFVQTDKSIYKPGQTVKFRVVSMDENFHPLNELIPLVYIQDPKGNRIAQWQSFQLEGGLKQFSFPLSSEPFQGSYKVVVQKKSGGRTEHPFTVEEFVLPKFEVQVTVPKIITILEEEMNVSVCGLYTYGKPVPGHVTVSICRKYSDASDCHGEDSQAFCEKFSGQLNSHGCFYQQVKTKVFQLKRKEYEMKLHTEAQIQEEGTVVELTGRQSSEITRTITKLSFVKVDSHFRQGIPFFGQVRLVDGKGVPIPNKVIFIRGNEANYYSNATTDEHGLVQFSINTTNVMGTSLTVRVNYKDRSPCYGYQWVSEEHEEAHHTAYLVFSPSKSFVHLEPMSHELPCGHTQTVQAHYILNGGTLLGLKKLSFYYLIMAKGGIVRTGTHGLLVKQEDMKGHFSISIPVKSDIAPVARLLIYAVLPTGDVIGDSAKYDVENCLANKVDLSFSPSQSLPASHAHLRVTAAPQSVCALRAVDQSVLLMKPDAELSASSVYNLLPEKDLTGFPGPLNDQDDEDCINRHNVYINGITYTPVSSTNEKDMYSFLEDMGLKAFTNSKIRKPKMCPQLEQYEMHGPEGLRVGIPENFFGVFYESDVMGRGHARLVHVEEPHTKLLRKYFPETWIWDLVVVNSAGVAEVGVTVPDTITEWKAGAFCLSEDAGLGISSTASLRAFQPFFVELTMPYSVIRGEAFTLKATVLNYLPKCIRVSVQLEASPAFLAVPVEKEQAPHCICANGRQTVSWAVTPKSLGNVNFTVSAEALESQELCGTEVPSVPEHGRKDTVIKPLLVEPEGLEKETTFNSLLCPSGGEVSEELSLKLPPNVVEESARASVSVLGDILGSAMQNTQNLLQMPYGCGEQNMVLFAPNIYVLDYLNETQQLTPEIKSKAIGYLNTGYQRQLNYKHYDGSYSTFGERYGRNQGNTWLTAFVLKTFAQARAYIFIDEAHITQALIWLSQRQKDNGCFRSSGSLLNNAIKGGVEDEVTLSAYITIALLEIPLTVTHPVVRNALFCLESAWKTAQEGDHGSHVYTKALLAYAFALAGNQDKRKEVLKSLNEEAVKKDNSVHWERPQKPKAPVGHFYEPQAPSAEVEMTSYVLLAYLTAQPAPTSEDLTSATNIVKWITKQQNAQGGFSSTQDTVVALHALSKYGAATFTRTGKAAQVTIQSSGTFSSKFQVDNNNRLLLQQVSLPELPGEYSMKVTGEGCVYLQTSLKYNILPEKEEFPFALGVQTLPQTCDEPKAHTSFQISLSVSYTGSRSASNMAIVDVKMVSGFIPLKPTVKMLERSNHVSRTEVSSNHVLIYLDKVSNQTLSLFFTVLQDVPVRDLKPAIVKVYDYYETDEFAIAEYNAPCSKDLGNADYKDDDDKGASHHHHHH

How the values were obtained:
Test in all cases: cell-based or functional assay
MMP13 = MMP13 (human, UniProt P45452 104-471, limits assumed)
ADAMTS5 = target: T1, ADAMTS5
ADAMTS4 = target: T2, ADAMTS4

| Binder | Protease Inhibition (% of WT) (MMP13) | Protease Inhibition (% of WT) (ADAMTS5) | Protease Inhibition (% of WT) (ADAMTS4) |
| --- | --- | --- | --- |
| B1 | 170 % of WT | 174 % of WT | 78 % of WT |
| B2 | 120 % of WT | 74 % of WT | 91 % of WT |
| B3 | 156 % of WT | 108 % of WT | 68 % of WT |
